The values that follow come from paper PMC11191739, “Structural Flexibility and Disassembly Kinetics of Single Ferritin Molecules Using Optical Nanotweezers” (ACS Nano, 2024).

The data set concerns the molecule itself. Nature of the data set: mass photometry; 50 nM ferritin at pH 2, measured at 1, 3 and 60 min, TwoMP mass photometer.

B1: holo-ferritin (derived from equine spleen, F4503) (natural protein)
chain 1: MSSQIRQNYSTEVEAAVNRLVNLYLRASYTYLSLGFYFDRDDVALEGVCHFFRELAEEKREGAERLLKMQNQRGGRALFQDLQKPSQDEWGTTLDAMKAAIVLEKSLNQALLDLHALGSAQADPHLCDFLESHFLDEEVKLIKKMGDHLTNIQRLVGSQAGLGEYLFERLTLKHD
chain 2: MTTAFPSQVRQNYHQDSEAAINRQINLELHASYVYLSMSFYFDRDDVALKNFAKYFLHQSHEEREHAEKLMKLQNQRGGRIFLQDIKKPDQDDWENGLKAMECALHLEKNVNESLLELHKLATDKNDPHLCDFLETHYLNEQVKAIKELGDHVTNLRRMGAPESGMAEYLFDKHTLGECDES
notes: ferritin light (L) chain, equine spleen; ferritin heavy (H) chain, equine spleen; It carries a ferrihydrite iron core; Rows of m1 with itself describe the self-association of the subunits; also called equine spleen ferritin; source: bought: Sigma-Aldrich (F4503), derived from equine spleen
For the protein B1, the stoichiometry N (as a rule, the number of molecules, sites or subunits per partner or assembly) was 18.
